Results published in PMC9365787, “Molecular basis of MHC I quality control in the peptide loading complex” (Nature Communications, 2022).

B1: calreticulin (natural protein, human (endogenous in Raji), UniProt P27797 18-417, looked up)
chain: EPAVYFKEQFLDGDGWTSRWIESKHKSDFGKFVLSSGKFYGDEEKDKGLQTSQDARFYALSASFEPFSNKGQTLVVQFTVKHEQNIDCGGGYVKLFPNSLDQTDMHGDSEYNIMFGPDICGPGTKKVHVIFNYKGKNVLINKDIRCKDDEFTHLYTLIVRPDNTYEVKIDNSQVESGSLEDDWDFLPPKKIKDPDASKPEDWDERAKIDDPTDSKPEDWDKPEHIPDPDAKKPEDWDEEMDGEWEPPVIQNPEYKGEWKPRQIDNPDYKGTWIHPEIDNPEYSPDPSIYAYDNFGVLGLDLWQVKSGTIFDNFLITNDEAYAEEFGNETWGVTKAAEKQMKDKQDEEQRLKEEEEDKKRKEEEEAEDKEDDEDKDEDEEDEEDKEEDEEEDVPGQAKDEL
notes: source: endogenous, Raji (Burkitt's lymphoma) cells, solubilised in GDN; purified within the PLC by ICP47^SBP and reconstituted in MSP2N2 nanodiscs
B2: tapasin (natural protein, human (endogenous in Raji), UniProt O15533 21-448, looked up)
chain: GPAVIECWFVEDASGKGLAKRPGALLLRQGPGEPPPRPDLDPELYLSVHDPAGALQAAFRRYPRGAPAPHCEMSRFVPLPASAKWASGLTPAQNCPRALDGAWLMVSISSPVLSLSSLLRPQPEPQQEPVLITMATVVLTVLTHTPAPRVRLGQDALLDLSFAYMPPTSEAASSLAPGPPPFGLEWRRQHLGKGHLLLAATPGLNGQMPAAQEGAVAFAAWDDDEPWGPWTGNGTFWLPTVQPFQEGTYLATIHLPYLQGQVTLELAVYKPPKVSLMPATLARAAPGEAPPELLCLVSHFYPSGGLEVEWELRGGPGGRSQKAEGQRWLSALRHHSDGSVSLSGHLQPPPVTTEQHGARYACRIHHPSLPASGRSAEVTLEVAGLSGPSLEDSVGLFLSAFLLLGLFKALGWAAVYLSTCKDSKKKAE
modifications: N-glycan at Asn233 (Man9-0GlcNAc2-1, heterogeneous); disulfide from Cys95 to Cys33 of ERp57
notes: as for B1

Columns and labels:
tapasin = target: B2; assay: cryo-EM structure; PLC::MSP2N2 (1.8 mg/ml, 2.5 µM) in lipid nanodiscs without chemical fixation; focused refinement on the fully assembled editing module, 3.7 Å; conditions: both partners purified
ERp57 = target: T1, ERp57 (human (endogenous in Raji), UniProt P30101 25-505, disulfide from Cys33 to Cys95 of tapasin); assay: as above; conditions: both partners purified
T1 construct: also called disulfide isomerase ERp57; source: endogenous, Raji (Burkitt's lymphoma) cells, solubilised in GDN; purified within the PLC by ICP47^SBP and reconstituted in MSP2N2 nanodiscs
T1 sequence (looked up): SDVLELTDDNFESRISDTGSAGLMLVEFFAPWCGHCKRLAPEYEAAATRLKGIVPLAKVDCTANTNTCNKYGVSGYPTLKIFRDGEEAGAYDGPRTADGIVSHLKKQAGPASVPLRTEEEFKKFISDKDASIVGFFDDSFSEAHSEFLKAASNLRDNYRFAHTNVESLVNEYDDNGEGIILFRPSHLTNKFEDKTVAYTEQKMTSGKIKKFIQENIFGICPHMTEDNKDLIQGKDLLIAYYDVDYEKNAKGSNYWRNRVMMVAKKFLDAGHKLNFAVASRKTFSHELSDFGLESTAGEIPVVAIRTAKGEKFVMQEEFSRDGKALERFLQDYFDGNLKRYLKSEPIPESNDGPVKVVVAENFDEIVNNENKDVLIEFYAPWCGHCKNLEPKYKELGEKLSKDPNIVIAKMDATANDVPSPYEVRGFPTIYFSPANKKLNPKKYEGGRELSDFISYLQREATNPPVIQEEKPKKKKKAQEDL

Binder	binding result (tapasin)	binding result (ERp57)
B1	binds	–
B2	–	binds
